Values joined by “and” are separate entries in the source; they are usually repeats but may differ in a detail not shown here. Identical values can stand only once.
Columns and labels:
[1] = system: primary antibody W12 (polyclonal anti-insulin antibody); experiment: Double-antibody radioimmunoassay: inhibition of [125I]insulin binding to primary antibody W12; design: species or system guinea-pig; conditions: standard solutions, RIA
Method: The assay was calibrated using insulin standards. […] A double dispenser (Dilutrend, Boehringer Corporation London Ltd) was used to add the appropriate volume of buffer and standard or FPLC fractions into the labelled LP3 tubes. The total volume of each tube was 500 μl. In addition, three tubes of NSB (non-specific binding), containing the standardized HSA concentration, were prepared with, Barbitone/HSA(0.2% w/v) and FPLC/Barbitone/HSA buffers. […] The radioactivity in 100 μl of the resulting tracer solution was counted in the γ-counter, and the counts per minute (cpm) should lie between 3000-5000 cpm. ANSA (2 mg/ml) was dissolved in the solution, and it functioned to displace the T4 moieties on the analogues from the THBPs, since the THBP could be shielding the insulin moiety that was to be assayed. Finally, 100 μl of this solution was added to every tube. The primary antibody, [MUT], is a polyclonal, guinea-pig anti-insulin antibody. […] It was diluted to 1:45,000 in Barbitone/HSA(0.2% w/v) buffer, and 100 μl was added to every tube, except the TC and NSB tubes. […] Finally, the samples, together with the TC and NSB tubes, were counted in the γ-counter using a programme for […] ). Double antibody RIA was used to quantify the immunoreactive insulin (IRI) in the FPLC fractions.

[2] = molecular target: T1, plasma protein thyroxine binding globulin (TBG) (Homo sapiens, UniProt P05543); experiment: IAsys optical biosensor kinetic binding to immobilized TBG; conditions: control, 500 μg/ml
T1 sequence (P05543 21-415): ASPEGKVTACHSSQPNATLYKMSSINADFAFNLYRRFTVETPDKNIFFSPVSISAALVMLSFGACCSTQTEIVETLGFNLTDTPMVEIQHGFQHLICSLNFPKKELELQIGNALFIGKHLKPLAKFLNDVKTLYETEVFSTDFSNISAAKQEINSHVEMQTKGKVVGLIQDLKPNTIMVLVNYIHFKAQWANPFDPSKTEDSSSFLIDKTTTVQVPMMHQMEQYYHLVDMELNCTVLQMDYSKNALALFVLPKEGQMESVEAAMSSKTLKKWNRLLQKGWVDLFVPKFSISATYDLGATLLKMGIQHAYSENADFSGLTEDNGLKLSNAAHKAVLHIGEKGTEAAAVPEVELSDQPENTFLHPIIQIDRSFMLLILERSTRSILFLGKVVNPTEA
Method: The optical bio-sensor IAsys makes it possible to record biomolecular interactions in real time and thus kinetical studies.
The surface of the cuvette is covered with a carboxymethylated dextran matrix (CMD), to which the plasma protein TBG is immobilized.
Immobilization of TBG to the carboxymethylated matrix is detected via the change of the resonance angle.
For the kinetical studies the Thyroid-Insulin conjugates were injected into the microcuvette in dilution series of 200, 300, 400 and 500 μg/ml in HBS/Tween-buffer at 25° C. To test for reproducibility, all measurements were repeated 3 times.
Determination of “on-rate” constants kon at various ligand concentrations cL allow kon to be plotted against cL according to equation (4). This gives the association rate constant kA from the slope and the dissociation rate constant kD at C2=O. It has, however, to be taken into account that the error of kD becomes too large when kD<0,01 s^−1 (IAsys, METHODS GUIDE).
The association and dissociation curves of the 3 Thyroid-Insulin-conjugates indicated in Table 3 were analyzed with the program Fast-fit.
Evaluation of dissociation was also via single phase curve-fitting, for the same reasons as above.

[3] = system: normal human serum (TBG, albumin, prealbumin); experiment: FPLC binding to THBPs after overnight incubation, IRI by RIA: normal human serum; format: in vitro ADME; conditions: normal human serum undiluted
Method: To ascertain the binding of the insulin or the analogue to the thyroid hormone binding proteins (THBPs), they were incubated overnight at 4° C. The bound and unbound species were separated by molecular weight with FPLC.
Solutions (0.5 ml) of THBPs were prepared in FPLC buffer as follows and then vortexed:
It was vortexed and incubated at 4° C. for ≈16 hours or overnight. Before FPLC, it was vortexed again, and filtered through a syringe filter of pore size 0.2 μm (Acrodisc® LC13 PVDF from Gelman, UK) to remove bacteria and serum precipitates.
The fraction tubes (LP3 tubes) were coated with 50 μl 3% (w/v) HSA to prevent the analogues from adsorbing to the tubes' inner surfaces. The fraction size was programmed as 0.50 ml. Immunoreactive insulin in each fraction was assayed with radioimmunoassay on the same day.
IRI content in each fraction was assayed by RIA.
FIGS. 3a-d show the elution profiles of the conjugates after overnight incubation with 5% human serum albumin (HSA). […] The calculated % bound and % free values are included in Table 3. Appearances of the THBPS, as detected by UV absorbance on the original chromatogram (which was not sensitive enough to detect the analogues) are also indicated as arrows on the elution profiles. The shadowed box represents the bound fractions; the clear box represents free fractions.

[4] = molecular target: T2, TBG (thyroxine binding globulin) (Homo sapiens, UniProt P05543); experiment: FPLC binding to THBPs after overnight incubation, IRI by RIA: TBG; conditions: TBG 0.238 μM
T2 sequence (P05543 21-415): T1 sequence (P05543 21-415)

[5] = molecular target: T3, insulin receptors on LPM (Rattus norvegicus, UniProt P15127); experiment: Equilibrium binding assay: inhibition of [125I]insulin binding to rat liver plasma membrane (LPM); conditions: absence of THBPs
T3 construct: isolate plasma membrane fractions from fresh rat livers; from tissue; host or cells: rat liver plasma membrane (microsomal light fraction)
T3 sequence (P15127 27-759 limits assumed): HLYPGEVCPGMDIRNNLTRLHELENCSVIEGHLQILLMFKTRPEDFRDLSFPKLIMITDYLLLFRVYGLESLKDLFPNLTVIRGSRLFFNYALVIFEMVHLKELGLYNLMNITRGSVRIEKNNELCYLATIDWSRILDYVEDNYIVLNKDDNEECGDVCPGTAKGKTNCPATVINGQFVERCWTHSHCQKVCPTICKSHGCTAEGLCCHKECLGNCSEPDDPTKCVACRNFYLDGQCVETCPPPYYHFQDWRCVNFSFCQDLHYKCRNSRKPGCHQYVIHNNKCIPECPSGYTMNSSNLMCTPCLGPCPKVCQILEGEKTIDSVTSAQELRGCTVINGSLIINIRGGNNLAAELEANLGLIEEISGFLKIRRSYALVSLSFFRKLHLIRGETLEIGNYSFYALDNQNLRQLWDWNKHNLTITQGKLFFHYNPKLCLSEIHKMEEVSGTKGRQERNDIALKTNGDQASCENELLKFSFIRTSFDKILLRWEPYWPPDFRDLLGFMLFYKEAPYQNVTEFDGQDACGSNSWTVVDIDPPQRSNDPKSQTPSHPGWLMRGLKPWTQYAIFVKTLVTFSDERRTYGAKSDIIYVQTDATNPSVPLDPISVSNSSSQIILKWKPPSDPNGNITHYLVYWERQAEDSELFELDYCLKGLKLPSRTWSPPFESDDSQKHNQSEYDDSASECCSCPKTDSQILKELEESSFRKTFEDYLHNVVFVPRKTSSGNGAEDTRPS
Excerpt: Rat liver plasma membrane (LPM) was isolated to be used in equilibrium binding assays as the source of insulin receptors.
This equilibrium binding assay determines the analogues affinity to the insulin receptors on the LPM, both in the presence and absence of the THBPs. […] The amount of bound tracer was counted in the γ counter after separating the bound and free species by centrifugation.
For the binding assays performed in the presence THBP, shifts in the binding curves and the changes in ED50s and RPE are described relative to binging of the same analogue in the absence of THBP.

H-Ins: unmodified (native, human) insulin used as control and reference
ED50, inhibition of [125I]insulin binding to W12 [1]: 1.065 nM | association to immobilized TBG [2]: association cannot be observed | Mean % Free (fractions 15.5-25 ml) [3]: 98.39% | Mean % Bound (fractions 5.5-15 ml) ([3]; n = 3): 1.61 ± 0.47% | Mean % Free (fractions 15.5-25 ml) [4]: 90.15% | Mean % Bound (fractions 5.5-15 ml) ([4]; n = 3): 9.85% and 9.85 ± 2.14% | Mean ED50 ± SEM [5]: 8.49 ± 0.69 nM

From patent US20030186847A1, “Insulin derivatives and synthesis thereof” (priority 2000, published 2003)
